Reference: publication doi:10.1101/2022.08.19.504503

Target: Cdh23 with entire EC domains (Cdh23 EC 1-27) (UniProt Q99PF4)
Experiment: cross-linking

stoichiometry N: 2
Substance: Cdh23 with entire EC domains (Cdh23 EC 1-27) (from UniProt Q99PF4 24-3354) (domain or fragment)
